What was measured:
solubility tests of PAC = format: physicochemical; conditions: repeated solubility tests
Excerpt: Insoluble drugs have two major problems in clinical application, one problem is low bioavailability due to low solubility of the drugs, and the other problem is that conventional formulation methods have certain restriction on application of the insoluble drugs.

[1] = monitoring of drug loading rate in long-term storage (UV absorbance at 480 nm); format: physicochemical; conditions: initial, bulk drug
Method: 10.7 mg adriamycin hydrochloride was precisely weighed and placed in a 100 mL volumetric flask, diluted with sterile water for injection to volume as stock solution, and underwent ultrasonic treatment for 5 min for even mixing; 0.2 ml, 0.4 ml, 0.8 ml, 1.2 ml, 1.6 ml and 2 ml adriamycin hydrochloride stock solution were pipetted and placed in 5 ml volumetric flasks respectively, diluted with sterile water for injection to volume, and shook up. Using ultraviolet spectrophotometry, absorbance A values of adriamycin solution were determined at the series of concentration gradients at 480 nm, and linear regression was performed by taking absorbance A as a vertical coordinate and mass concentration C (mg·mL-1) of adriamycin as horizontal coordinate to obtain an equation: A=0.0178C+0.0284, R2=0.9994 (n=3).
1 mL PAC nanosuspension (prepared according to a preferable solution) was precisely pipetted and placed in a 50 mL volumetric flask (concentration of the PAC nanosuspension was 7.76 mg/mL), diluted with sterile water for injection to volume and shook up, and then proper amount was pipetted to determine absorbance at 480 nm so as to obtain adriamycin concentration Cx with the standard curve. Drug loading rate of the PAC=(Cx/7.76)*100%. […]

With pectin-adriamycin conjugate [PAC] the solubility (solubility tests of PAC) was “insoluble” and the drug loading rate [1] was 25.8%.
